In PMC12389326, “The Impact of the Injected Mass of the Gastrin-Releasing Peptide Receptor Antagonist on Uptake in Breast Cancer: Lessons from a Phase I Trial of [^99mTc]Tc-DB8” (Pharmaceutics, 2025):

How the values were obtained:
[1] = cited from earlier work
Experimental: The injected activities were selected to enable good counting statistics, permitting accurate dosimetry calculations up to 24 h after injection. […] Considering that the clear SPECT visualization was already observed 2 h after injection, the injected activ ...

clinical = test: clinical; design: species or system human; settings: in vivo; for tissue uptake dose at 4 h / tissue uptake dose at 6 h / tissue uptake dose at 24 h / tissue uptake dose at 2 h: human, SD
Experimental: Imaging was performed using a Siemens Symbia Intevo Bold scanner equipped with a high-resolution, low-energy collimator. Anterior and posterior planar whole-body imaging (at a scan speed of 12 cm/min, 1024 × 256 pixel matrix) was performed at 2, 4, 6, and 24 h after injection of [^99mTc]Tc-DB8. SPECT/CT scans (SPECT: 60 projections, 20 s each, stored in 256 × 256 pixel matrix/CT: 130 kV, effective 36 mAs) covering the area from the neck to liver were performed 2, 4, and 6 h after injection of [^99mTc]Tc-DB8. SPECT images were reconstructed using xSPECT (Siemens) protocol based on the ordered subset conjugate gradient (OSCG) method (24 iterations, 2 subsets) with a 3D Gaussian FWHM 10 mm filter (Soft Tissue). The images were processed using the proprietary software package Syngo.via Workstation (Siemens Healthineers).
(§1) Dosimetry was evaluated as described in [44]. Briefly, regions of interest (ROI) were drawn over organs of interest and over the whole body on the anterior and posterior whole-body images of patients injected with [^99mTc]Tc-DB8; a geometric mean of counts at 2, 4, 6, and 24 h was calculated for each ROI. To assess elimination kinetics in blood, a ROI was placed over the heart. For quantification, a known activity of Tc-99m in a water-filled phantom in combination with Chang’s correction was used. Data were fitted by single exponential functions and residence time was calculated as areas under fitted curves using GraphPad Prism 8.0 (GraphPad Software, San Diego, CA, USA). Absorbed doses were calculated by OLINDA/EXM 1.1 using Adult Female phantom.

[2] = design: species or system human; settings: in vivo
Experimental: as §1

[3] = 40 ug, Uptake in Liver (decay-corrected)
[4] = 40 ug, Uptake in Lungs (decay-corrected)
[5] = 40 ug, Uptake in Pancreas (decay-corrected)
[6] = 40 ug, total radioactivity, Uptake in Breast (decay-corrected)
[7] = 40 ug, total radioactivity, Uptake in Kidney (decay-corrected)
[8] = 40 ug, total radioactivity, Uptake in Small Intestine (decay-corrected)
[9] = 80 ug, Uptake in Liver (decay-corrected)
[10] = 80 ug, Uptake in Lungs (decay-corrected)
[11] = 80 ug, Uptake in Pancreas (decay-corrected)
[12] = 80 ug, total radioactivity, Uptake in Breast (decay-corrected)
[13] = 80 ug, total radioactivity, Uptake in Kidney (decay-corrected)
[14] = 80 ug, total radioactivity, Uptake in Small Intestine (decay-corrected)
[15] = 120 ug, Uptake in Liver (decay-corrected)
[16] = 120 ug, Uptake in Lungs (decay-corrected)
[17] = 120 ug, Uptake in Pancreas (decay-corrected)
[18] = 120 ug, total radioactivity, Uptake in Breast (decay-corrected)
[19] = 120 ug, total radioactivity, Uptake in Kidney (decay-corrected)
[20] = 120 ug, total radioactivity, Uptake in Small Intestine (decay-corrected)

Compound: [^18F]FDG
- Absorbed dose after injection for visualization of breast cancer [1]: 2.5–4.3 mSv

Compound: CCNC(=O)[C@H](CC(C)C)NC(=O)[C@H](Cc1c[nH]cn1)NC(=O)CNC(=O)[C@@H](NC(=O)[C@H](C)NC(=O)[C@H](Cc1c[nH]c2ccccc12)NC(=O)[C@H](CCC(N)=O)NC(=O)[C@@H](Cc1ccccc1)NC(=O)COCC(=O)Nc1ccc(CNC(=O)C(CNCCN)CNCCN)cc1)C(C)C [[^99mTc]Tc-DB8, metal not drawn]
- tissue uptake dose at 4 h (clinical; [3]): 2.1 ± 1.1 %ID
- tissue uptake dose at 6 h (clinical; [3]): 1.6 ± 0.8 %ID
- tissue uptake dose at 24 h (clinical; [3]): 0.8 ± 0.4 %ID
- tissue uptake dose at 2 h (clinical; [4]): 3.8 ± 0.5 %ID
- tissue uptake dose at 4 h (clinical; [4]): 2.3 ± 0.3 %ID
- tissue uptake dose at 6 h (clinical; [4]): 1.6 ± 0.2 %ID
- tissue uptake dose at 24 h (clinical; [4]): 0.7 ± 0.1 %ID
- tissue uptake dose at 2 h (clinical; [5]): 1.5 ± 0.5 %ID
- tissue uptake dose at 4 h (clinical; [5]): 0.9 ± 0.4 %ID
- tissue uptake dose at 6 h (clinical; [5]): 0.7 ± 0.3 %ID
- tissue uptake dose at 24 h (clinical; [5]): 0.35 ± 0.09 %ID
- tissue uptake dose at 2 h (clinical; [6]): 4.2 ± 1.1 %ID
- tissue uptake dose at 4 h (clinical; [6]): 2.4 ± 0.4 %ID
- tissue uptake dose at 6 h (clinical; [6]): 1.7 ± 0.3 %ID
- tissue uptake dose at 24 h (clinical; [6]): 0.7 ± 0.1 %ID
- tissue uptake dose at 2 h (clinical; [7]): 3.1 ± 1.9 %ID
- tissue uptake dose at 4 h (clinical; [7]): 2.1 ± 0.9 %ID
- tissue uptake dose at 6 h (clinical; [7]): 1.6 ± 0.5 %ID
- tissue uptake dose at 24 h (clinical; [7]): 0.9 ± 0.2 %ID
- tissue uptake dose at 2 h (clinical; 40 ug, total radioactivity, Uptake in Liver (decay-corrected)): 3 ± 1.6 %ID
- tissue uptake dose at 2 h (clinical; [8]): 4.2 ± 1.6 %ID
- tissue uptake dose at 4 h (clinical; [8]): 2.8 ± 1.1 %ID
- tissue uptake dose at 6 h (clinical; [8]): 2.1 ± 0.7 %ID
- tissue uptake dose at 24 h (clinical; [8]): 1.4 ± 0.3 %ID
- tissue uptake dose at 2 h (clinical; [9]): 3.3 ± 0.9 %ID
- tissue uptake dose at 4 h (clinical; [9]): 2.2 ± 0.8 %ID
- tissue uptake dose at 6 h (clinical; [9]): 1.4 ± 0.7 %ID
- tissue uptake dose at 24 h (clinical; [9]): 0.7 ± 0.3 %ID
- tissue uptake dose at 2 h (clinical; [10]): 5.9 ± 1.6 %ID
- tissue uptake dose at 4 h (clinical; [10]): 4.1 ± 1.6 %ID
- tissue uptake dose at 6 h (clinical; [10]): 2.8 ± 1.2 %ID
- tissue uptake dose at 24 h (clinical; [10]): 0.9 ± 0.4 %ID
- tissue uptake dose at 2 h (clinical; [11]): 1.2 ± 0.3 %ID
- tissue uptake dose at 4 h (clinical; [11]): 0.8 ± 0.3 %ID
- tissue uptake dose at 6 h (clinical; [11]): 0.6 ± 0.3 %ID
- tissue uptake dose at 24 h (clinical; [11]): 0.2 ± 0.1 %ID
- tissue uptake dose at 2 h (clinical; [12]): 6.2 ± 1.9 %ID
- tissue uptake dose at 4 h (clinical; [12]): 3.4 ± 1.7 %ID
- tissue uptake dose at 6 h (clinical; [12]): 2.7 ± 1.2 %ID
- tissue uptake dose at 24 h (clinical; [12]): 0.8 ± 0.4 %ID
- tissue uptake dose at 2 h (clinical; [13]): 5.1 ± 2.1 %ID
- tissue uptake dose at 4 h (clinical; [13]): 2.8 ± 0.9 %ID
- tissue uptake dose at 6 h (clinical; [13]): 2.2 ± 0.9 %ID
- tissue uptake dose at 24 h (clinical; [13]): 1.2 ± 0.8 %ID
- tissue uptake dose at 2 h (clinical; [14]): 3.4 ± 1.1 %ID
- tissue uptake dose at 4 h (clinical; [14]): 2.2 ± 0.6 %ID
- tissue uptake dose at 6 h (clinical; [14]): 1.6 ± 0.6 %ID
- tissue uptake dose at 24 h (clinical; [14]): 0.7 ± 0.4 %ID
- tissue uptake dose at 2 h (clinical; [15]): 2.2 ± 0.9 %ID
- tissue uptake dose at 4 h (clinical; [15]): 1.5 ± 0.7 %ID
- tissue uptake dose at 6 h (clinical; [15]): 1.1 ± 0.5 %ID
- tissue uptake dose at 24 h (clinical; [15]): 0.5 ± 0.2 %ID
- tissue uptake dose at 2 h (clinical; [16]): 3.5 ± 1.3 %ID
- tissue uptake dose at 4 h (clinical; [16]): 2 ± 1 %ID
- tissue uptake dose at 6 h (clinical; [16]): 1.6 ± 0.7 %ID
- tissue uptake dose at 24 h (clinical; [16]): 0.6 ± 0.2 %ID
- tissue uptake dose at 2 h (clinical; [17]): 0.8 ± 0.2 %ID
- tissue uptake dose at 4 h (clinical; [17]): 0.5 ± 0.1 %ID
- tissue uptake dose at 6 h (clinical; [17]): 0.34 ± 0.09 %ID
- tissue uptake dose at 24 h (clinical; [17]): 0.15 ± 0.06 %ID
- tissue uptake dose at 2 h (clinical; [18]): 3.5 ± 1.1 %ID
- tissue uptake dose at 4 h (clinical; [18]): 2 ± 0.8 %ID
- tissue uptake dose at 6 h (clinical; [18]): 1.3 ± 0.5 %ID
- tissue uptake dose at 24 h (clinical; [18]): 0.6 ± 0.2 %ID
- tissue uptake dose at 2 h (clinical; [19]): 3.5 ± 1.6 %ID
- tissue uptake dose at 4 h (clinical; [19]): 2.2 ± 1 %ID
- tissue uptake dose at 6 h (clinical; [19]): 1.7 ± 0.8 %ID
- tissue uptake dose at 24 h (clinical; [19]): 1.1 ± 0.4 %ID
- tissue uptake dose at 2 h (clinical; [20]): 3.3 ± 1 %ID
- tissue uptake dose at 4 h (clinical; [20]): 2.1 ± 0.7 %ID
- tissue uptake dose at 6 h (clinical; [20]): 1.8 ± 0.6 %ID
- tissue uptake dose at 24 h (clinical; [20]): 1.1 ± 0.4 %ID
- Route of elimination (clinical): predominantly via the kidneys
- Absorbed dose, Urinary bladder wall [2]: 0.02 ± 0.01 mGy/MBq
- Absorbed equivalent dose [2]: 4.6 mSv
- Effective dose [2]: 0.009–0.014 mSv/MBq
